According to paper PMC7307649 (Biochemistry, 2020):

T1: ACKR4 C-terminally fused to SmBiT (UniProt Q9NPB9)
T1 sequence: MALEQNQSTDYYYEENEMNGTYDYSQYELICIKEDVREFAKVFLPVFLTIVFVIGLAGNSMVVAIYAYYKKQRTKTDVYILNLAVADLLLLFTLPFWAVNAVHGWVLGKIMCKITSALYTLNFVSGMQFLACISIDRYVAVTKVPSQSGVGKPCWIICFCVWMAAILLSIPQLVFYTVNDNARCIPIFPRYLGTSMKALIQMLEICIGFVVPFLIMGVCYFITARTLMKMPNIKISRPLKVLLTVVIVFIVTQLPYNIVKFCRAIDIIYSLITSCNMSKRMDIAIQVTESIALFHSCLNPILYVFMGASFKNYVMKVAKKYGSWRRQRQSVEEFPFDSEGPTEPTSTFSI

T2: CCL21WT (full-length human CCL21, residues 1–111) (human), O00585
T2 chain: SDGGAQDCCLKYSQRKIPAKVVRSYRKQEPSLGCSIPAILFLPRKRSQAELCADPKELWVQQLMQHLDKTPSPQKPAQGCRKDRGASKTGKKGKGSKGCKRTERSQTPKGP

T3: CCR7 C-terminally fused to SmBiT (human, UniProt P32248 25-378)
T3 sequence (looked up): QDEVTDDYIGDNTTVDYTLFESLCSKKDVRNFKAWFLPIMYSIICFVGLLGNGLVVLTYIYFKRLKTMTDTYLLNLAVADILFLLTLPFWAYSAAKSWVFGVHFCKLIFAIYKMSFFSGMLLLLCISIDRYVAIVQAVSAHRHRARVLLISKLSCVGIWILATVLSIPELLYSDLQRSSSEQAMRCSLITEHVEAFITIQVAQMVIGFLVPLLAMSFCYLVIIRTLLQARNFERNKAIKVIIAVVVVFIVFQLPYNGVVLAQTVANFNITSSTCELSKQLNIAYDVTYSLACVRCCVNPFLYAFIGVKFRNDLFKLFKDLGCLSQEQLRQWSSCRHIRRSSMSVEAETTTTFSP

T4: ACKR4 C-terminally fused to SmBiT (UniProt Q9NPB9 1-350)
T4 sequence (looked up): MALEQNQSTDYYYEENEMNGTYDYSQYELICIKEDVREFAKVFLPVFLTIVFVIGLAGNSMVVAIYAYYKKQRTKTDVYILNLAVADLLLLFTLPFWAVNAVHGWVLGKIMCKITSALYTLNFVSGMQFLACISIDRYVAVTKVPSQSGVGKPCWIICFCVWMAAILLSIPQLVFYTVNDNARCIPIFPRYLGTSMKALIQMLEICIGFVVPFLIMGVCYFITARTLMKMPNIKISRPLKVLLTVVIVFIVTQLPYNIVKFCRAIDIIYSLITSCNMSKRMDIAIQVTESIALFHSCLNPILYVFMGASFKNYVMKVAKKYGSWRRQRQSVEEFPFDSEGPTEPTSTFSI


Experiments:
[1] = biological target: T1, ACKR4 C-terminally fused to SmBiT
[2] = biological target: CCR7 C-terminally fused to SmBiT (human) (UniProt P32248)
[3] = biological target: CCR7 C-terminally fused to SmBiT (human) (UniProt P32248); remark: listed apart in the source
[4] = biological target: CCR7 C-terminally fused to SmBiT (human) (UniProt P32248); remark: listed apart in the source
[5] = biological target: T2, CCL21WT (full-length human CCL21, …); assay: NMR titration; settings: remark: other sources report otherwise
[6] = biological target: T3, CCR7 C-terminally fused to SmBiT; assay: cell-based or functional assay
[7] = biological target: T4, ACKR4 C-terminally fused to SmBiT; assay: cell-based or functional assay
[8] = biological target: T2, CCL21WT (full-length human CCL21, …); assay: NMR titration; settings: remark: other sources report otherwise

β-arrestin 1 recruitment to ACKR4, EC50 [1]	β-arrestin 1 recruitment to CCR7, EC50 [2]	calcium flux in CHEM-1 CCR7+ cells, EC50 [3]	calcium mobilization in CHEM-1 CCR7+ cells, EC50 [6]	β-arrestin 1 recruitment to CCR7 (panel with the truncation variants), EC50 [6]	β-arrestin 1 recruitment to ACKR4 (panel with the truncation variants), EC50 [7]	Molecule	other results
0.005 µM	0.06 µM	0.0073 µM				CCL21 1–91 C80A (from UniProt O00585 24-114) (domain or fragment)	cAMP inhibition assay, dose–response from 10 pM to 100 nM, EC50 [2]: 7 nM
0.03 µM	0.1 µM	0.0215 µM				CCL21 1–101 (from UniProt O00585 24-124) (domain or fragment)	
						CCL21 C80AC99A (from UniProt O00585 24-134) (ligand)	calcium mobilization in CHEM-1 CCR7+ cells, EC50 [4]: 0.0253 µM
			0.0334 µM	~0.1 µM	~0.03 µM	CCL21WT (full-length human CCL21, residues 1–111) (ligand, UniProt O00585 24-134, looked up) SDGGAQDCCLKYSQRKIPAKVVRSYRKQEPSLGCSIPAILFLPRKRSQAELCADPKELWVQQLMQHLDKTPSPQKPAQGCRKDRGASKTGKKGKGSKGCKRTERSQTPKGP	Kd [5]: 2000 to 10000 µM; Kd [8]: > 1000 µM
			0.00585 µM	~0.06 µM	~0.005 µM	CCL21trunc (CCL21 residues 1–79) (domain or fragment, human, UniProt O00585 24-102, looked up) SDGGAQDCCLKYSQRKIPAKVVRSYRKQEPSLGCSIPAILFLPRKRSQAELCADPKELWVQQLMQHLDKTPSPQKPAQG	
